Measured values reported in patent US20260132208A1.

What was measured:
human CCR8 (human) [1] = target: human CCR8 (human) (UniProt P51685); experiment: cell-based or functional assay
human CCR8 (human) [2] = target: human CCR8 (human) (UniProt P51685); experiment: flow cytometry on lymphocytes from ovarian cancer ascites, 0.1 µg antibody
human CCR8 (human) [3] = target: human CCR8 (human) (UniProt P51685); experiment: flow cytometry on lymphocytes from ovarian cancer ascites, 0.5 µg antibody
human CCR8 (human) [4] = target: human CCR8 (human) (UniProt P51685); experiment: flow cytometry on lymphocytes from ovarian cancer ascites, 1 µg antibody
human CCR8 (human) [5] = target: human CCR8 (human) (UniProt P51685); experiment: flow cytometry, hCCR8-transfected CHO-K1 cells

Row | Substance | EC80 of hCCL1, hCCR8 Gi2 BRET, HEK-293 in suspension (human CCR8 (human) [1]) [nM] | EC80 of hCCL1, hCCR8 Gi2 BRET, adherent HEK-293 (protocol #4) (human CCR8 (human) [1]) [nM] | Positive cells (human CCR8 (human) [2]) [%] | Positive cells (human CCR8 (human) [3]) [%] | Positive cells (human CCR8 (human) [4]) [%] | % positive cells (human CCR8 (human) [5]) [%] | MFI fold change to isotype ctrl (human CCR8 (human) [5]) [fold]
1 | human CCL1 (from UniProt P22362 24-96) (ligand) | 6 | 0.6 | – | – | – | – | –
2 | Isotype ctrl (antibody) | – | – | 2.94 | 3.81 | 5.06 | – | –
3 | murine anti-human CCR8 monoclonal antibody L263G8 | – | – | 9.5 | 9.86 | 8.64 | 86.5 | 19.8
